The test system of this series is MS2 coat protein. In words: apparent KD of MS2 coat protein; designed switch direction (-1 OFF switch, 1 ON switch): 1; higher = weaker reporter binding. The method, boiled down: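 On Illumina chips, designed RNA switches with common flanks were made by stalled E. coli RNA polymerase. Titrations with SNAP-549-labelled MS2 coat protein, doubling from 0.7 or 1.5 nM to 3 µM, were done with no input, with 200 uM small-molecule ligand, or with an oligonucleotide input. Apparent KD is the median per design over clusters, from curve fits of normalised cluster fluorescence.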

The mark [1] stands for this setting: Eterna round: R95, input ligand: microRNA oligo, concentration not stated.
Setting [2] is: Eterna round: R95, input ligand: FMN 200 uM.
The mark [3] stands for this setting: Eterna round: R95, input ligand: none.
Setting [4] is: input ligand: microRNA oligo, concentration not stated.

Take “GGAGGACAUGAGGAUCACCCAUGUGGAUGGGCGCUAGGAUAUGCGUGCGGGAAGAGUGGAGCAGAAGGAGUGGGUU [JR_SS1_Sub045] (puzzle: Same State 1)”: under setting [1], the “apparent KD of MS2 coat protein” value came out at 37.4 nM.

Regarding “AUAAAACAUGAGGAUCACCCAUGUCAACAAAGUCUAGGAUAUGGGCAAAUAAAAUAAGAACCAGAAGGCGAAUAAU [salish99_ss1_r3_051] (puzzle: Same State 1)”, the “apparent KD of MS2 coat protein” value reads like this: under setting [2], 167 nM; under setting [1], 177 nM; under setting [3], 178 nM.

As for “UCUGCAUGAACAGGAUAUGGGUUCAGAGCGGGAGUGCGCUUUGACACAUGAGGAUCACCCAUGUCCCAGAAGGGUUCAAGCGGC [Rianbein] (Eterna round: R96, puzzle: Same State NG 2)”, the “apparent KD of MS2 coat protein” value is 47.7 nM (input ligand: FMN 200 uM), 219 nM under setting [4] and 430 nM (input ligand: none).

In the case of “CAUAAUAAAACGGAGGAUAUGCUACCCUUCACAUGAGGAUCACCCAUGUUACCCUCUUAUUUUCAGUAGAAGGCCGAUACAUAAC [Delilah] (puzzle: Same State 2)”, the “apparent KD of MS2 coat protein” value reads like this: under setting [2], 38.1 nM; under setting [1], 31.9 nM; under setting [3], 38.9 nM.

For the sequence “UAGUACAAGCUUUUUGCUUGUCUUAUUUAACAUGAGGAUCACCCAUGUAAGUUGAAAGUUAGAGAGUGGAGGUUGAA [JR_SHM208A_Sub050] (puzzle: Sensor for hsa-mir-208a)”, the “apparent KD of MS2 coat protein” value is 20 nM under setting [2], 20.4 nM under setting [1] and 18.8 nM under setting [3].

Consider “GCUCGGCUGAUGGCCCACAUGAGGAUCACCCAUGUGAGUGGGCAGGAUAUCUAGAUUAAGGAUGUAGAGAAGGGCCUACCGAGC [SameState NG3 #35] (Eterna round: R96, puzzle: Same State NG 3)”, for which the “apparent KD of MS2 coat protein” value (input ligand: FMN 200 uM) is 443 nM, the “apparent KD of MS2 coat protein” value under setting [4] is 106 nM and the “apparent KD of MS2 coat protein” value (input ligand: none) is 244 nM.

For “GUGGUCAGACAUGAGGAUCACCCAUGUGGAAUAAAUAACACACAGGAUAUCUAAUAUAAAAUAUAAGAGAAGGGUGGAUUGGUG (Eterna round: R96, puzzle: Same State NG 3)”, the “apparent KD of MS2 coat protein” value under setting [4] turned out to be 202 nM.

Turning to “UAACAGUACAAUUUAGAUCUACAUGAGGAUCACCCAUGUACUGAGGAUAUCAGCUCGUGUAGAGCUGAGAAGGCAGAAGAACUA [SSNG3/11-A4] (Eterna round: R96, puzzle: Same State NG 3)”, the “apparent KD of MS2 coat protein” value worked out at 38.1 nM (input ligand: FMN 200 uM), 93.4 nM under setting [4] and 173 nM (input ligand: none).

“GCCACACAUGAGGAUCACCCAUGUAAUUACAUGGGAGGAUAUCAGUGCUCGAAAGAGCACUGAGAAGGCCUGUGGC [SS1 - Omei A v3] (puzzle: Same State 1)”: the “apparent KD of MS2 coat protein” value under setting [2] was 134 nM, the “apparent KD of MS2 coat protein” value under setting [1] was determined as 89.6 nM and the “apparent KD of MS2 coat protein” value under setting [3] amounted to 67.8 nM.

Consider “CAGCGCUGUUGAGAGGAUAUGCGGUGAUGGACAUGAGGAUCACCCAUGUUAGCGACAGCAUUACGGCAGAAGGCUUCACAGCUGC [Soteed Omei mod 17] (Eterna round: R96, puzzle: Same State 2)”, for which the “apparent KD of MS2 coat protein” value reads like this: (input ligand: FMN 200 uM) 13.9 nM; under setting [4], 36.9 nM; (input ligand: none) 47.1 nM.

As for “GCCAACAUGAGGAUCACCCAUGUCCGGAAGUGAAUUCAAAGUGAGGAUAUGGAGAGACCGAAAAUCCAGAAGGCACGCACAUGC [Eternabot solution 10] (Eterna round: R96, puzzle: Same State NG 3)”, the “apparent KD of MS2 coat protein” value is, setting by setting: (input ligand: FMN 200 uM) 1500 nM; under setting [4], 475 nM; (input ligand: none) 1260 nM.

In the case of “AUAAGUUUGAUGCUCGUCUCUCCGUACAGACAUGAGGAUCACCCAUGUAGCCGGGAAGUAGCCCGACCAGUAUGGCC [Isriinus] (puzzle: Sensor for hsa-mir-208a)”, the “apparent KD of MS2 coat protein” value under setting [2] was determined as 72.2 nM, the “apparent KD of MS2 coat protein” value under setting [1] stood at 23.9 nM and the “apparent KD of MS2 coat protein” value under setting [3] was found to be 93.7 nM.

In the case of “UUCCACGUUGCACAGGAUAUCCAAGCCGUGACAUGAGGAUCACCCAUGUCUAGUAGGCGACUAAGGGAGAAGGGUGUUGUCGUGC [Biuser] (puzzle: Same State 2)”, the “apparent KD of MS2 coat protein” value by setting is: under setting [2], 10.8 nM; under setting [1], 10.1 nM; under setting [3], 10.1 nM.

Consider “CUCCCAUGUGCACAGGAUAUGCCGGGAUGCACAUGAGGAUCACCCAUGUAAUCCUGAAAAUAAAAGCAGAAGGGUGAUCAUGGGU [Teriqula] (puzzle: Same State 2)”, for which the “apparent KD of MS2 coat protein” value by setting is: under setting [2], 7.24 nM; under setting [1], 16.5 nM; under setting [3], 13.2 nM.

Consider “GUUACAUGAGGAUCACCCAUGUAUGUGUGGGAGUAAGUGUCUUAGGAUAUCUAGUAUUUAAUUCAAGAGAAGGAAGAUUGUUGU [JMF's solution 68] (Eterna round: R96, puzzle: Same State NG 3)”, for which the “apparent KD of MS2 coat protein” value is 118 nM (input ligand: FMN 200 uM), 132 nM under setting [4] and 122 nM (input ligand: none).

Regarding “ACAUGAGAUAGAGGAUAUAUUGUACCUACAUGUGACAUGAGGAUCACCCAUGUGGUAAGUAUGACAUAGAAGGCUGAGAUAUGU [Equivalance 83 - Jieux - Same State NG 2] (Eterna round: R96, puzzle: Same State NG 2)”, the “apparent KD of MS2 coat protein” value by setting is: (input ligand: FMN 200 uM) 69.8 nM; under setting [4], 67.5 nM; (input ligand: none) 77 nM.

With “GCUAGAAUUAAAGCCAACAUGAGGAUCACCCAUGUAUGUUGGUAGGAUAUCGUUUGCAAAGCAAACGAGAAGGGCUAAACUAGC [Mat - Same State NG 3 - JL Mod - D16] (Eterna round: R96, puzzle: Same State NG 3)”, the “apparent KD of MS2 coat protein” value worked out at 97.9 nM (input ligand: FMN 200 uM), 80.2 nM under setting [4] and 93.8 nM (input ligand: none).

On to “UGGUACAUGGGAGGAUAUGGAGUGAUGACAUGAGGAUCACCCAUGUUAUUUAUGCCGAGAGGCAACUAGAAGGCCCAUGUACCU [JL SSNG1 3.96] (Eterna round: R96, puzzle: Same State NG 2)”, for which the “apparent KD of MS2 coat protein” value runs as follows: (input ligand: FMN 200 uM) 16.7 nM; under setting [4], 40.8 nM; (input ligand: none) 52 nM.

Consider “GUUACAUGAGGAUCACCCAUGUAUGUGUGGGAGUAAGUGUCUUAGGAUAUCUAUCAUUUAAUAUAAGAGAAGGAAGAUUGUUGU [JMF's solution 96] (Eterna round: R96, puzzle: Same State NG 3)”, for which, under setting [4], the “apparent KD of MS2 coat protein” value came to 87.3 nM.

Regarding “CUCAAACAUGAGGAUCACCCAUGUGUUGUCAUGGGAGGAUAUCCAAGUUCGUUGUAGUCGGGAGAAGGCCUAUGUC [× ×•×ª×• ×ž×“×™× ×” × ×—×ª-12] (puzzle: Same State 1)”, under setting [1], the “apparent KD of MS2 coat protein” value was 139 nM.

Turning to “GGUCCAGCCUGAGCUGGACAAAAGCAUGUACAUGAGGAUCACCCAUGUUAUGUACAAGCUUUUUGCUCGUCUUAAAA [JL mod - D87 - 10] (Eterna round: R96, puzzle: Sensor for hsa-mir-208a)”, the “apparent KD of MS2 coat protein” value by setting is: (input ligand: FMN 200 uM) 183 nM; under setting [4], 12.2 nM; (input ligand: none) 188 nM.

Consider “GCUAGAAUUAAAGCCAACAUGAGGAUCACCCAUGUAUGUUGGCAGGAUAUCGUUUGCAAAGCAAACGAGAAGGGCCAUACUAGC [Mat - Same State NG 3 - JL Mod - D22] (Eterna round: R96, puzzle: Same State NG 3)”, for which the “apparent KD of MS2 coat protein” value (input ligand: FMN 200 uM) stood at 33.4 nM, the “apparent KD of MS2 coat protein” value under setting [4] is 87.5 nM and the “apparent KD of MS2 coat protein” value (input ligand: none) worked out at 118 nM.

In the case of “UAAAGAUCGCGAGGAUAUCGCGAGGAUCACCCGUGAGAAGGCGCAGAGCCGAGGAUCACCCGGCUGAUCCUGAGGAGGAGGUCA (Eterna round: R96, puzzle: Same State NG 1)”, the “apparent KD of MS2 coat protein” value turned out to be 204 nM (input ligand: FMN 200 uM), 213 nM under setting [4] and 302 nM (input ligand: none).

Consider “GGAGCCGGCCUAGGAUAUUUCAUAAAAAAACAUGAGGAUCACCCAUGUAGGCCAGAAGGCCUUGGGAAGAAGGAGGUCGGCUCC [Loop Effect - Control] (Eterna round: R96, puzzle: Same State NG 2)”, for which the “apparent KD of MS2 coat protein” value reads like this: (input ligand: FMN 200 uM) 8.94 nM; under setting [4], 11.9 nM; (input ligand: none) 21.3 nM.

Take “GGAGAGAGAGCGCAGGAUAUUCAAGGAGAGACAUGAGGAUCACCCAUGUAAGAGAGAGAGGAGAGGGAGAAGGGUGAGAGAGAGG [Altered State 2-12 - Jieux - Same State 2] (puzzle: Same State 2)”: the “apparent KD of MS2 coat protein” value reads like this: under setting [2], 28.5 nM; under setting [1], 27.8 nM; under setting [3], 22 nM.

As to “GGAGAGAGAGCGGAGGAUAUUCAAGGAGAGACAUGAGGAUCACCCAUGUAAGAGAGAGAGGAGAGGGAGAAGGCUGAGAGAGAGG [Altered State 2-11 - Jieux - Same State 2] (puzzle: Same State 2)”, the “apparent KD of MS2 coat protein” value came to 25.1 nM under setting [2], 25.9 nM under setting [1] and 27.2 nM under setting [3].

In the case of “AUCAUUUAUGCAGGAUAUGAUUAACAUGAGGAUCACCCAUGUGGUGUUGUGAGUAAGGAGAGUGAUCAGAAGGGCAUUUUUUUU [JMF's solution 72] (Eterna round: R96, puzzle: Same State NG 2)”, the “apparent KD of MS2 coat protein” value reads like this: (input ligand: FMN 200 uM) 476 nM; under setting [4], 296 nM; (input ligand: none) 482 nM.

Turning to “UCAAGCGUUUGGCUCGUCUUAUGUUUGGUACAUGAGGAUCACCCAUGUUAUGUACGAUCCAGUUAGAUGGUAUUUUG [JR_SHM208A_Sub037] (puzzle: Sensor for hsa-mir-208a)”, the “apparent KD of MS2 coat protein” value under setting [2] was 35.9 nM, the “apparent KD of MS2 coat protein” value under setting [1] came to 127 nM and the “apparent KD of MS2 coat protein” value under setting [3] worked out at 47.1 nM.

Values taken from the supplement of paper PMC9170038.
